In publication PMC11873350:
pKd: −log10 of the molar value. Read-outs that look alike come from different tables or passages of the source.

How the values were obtained:
Test in all cases: BLI
SHH002-hu1-MICA (human) = SHH002-hu1-MICA (human) (UniProt Q29983)
rhNKG2D-Fc (human) [1] = target: rhNKG2D-Fc (human) (UniProt P26718)
rhNKG2D-Fc (human) [2] = target: rhNKG2D-Fc (human) (UniProt P26718); remark: listed apart in the source

Sequence of UniProt Q29983 (Q29983 whole entry, looked up): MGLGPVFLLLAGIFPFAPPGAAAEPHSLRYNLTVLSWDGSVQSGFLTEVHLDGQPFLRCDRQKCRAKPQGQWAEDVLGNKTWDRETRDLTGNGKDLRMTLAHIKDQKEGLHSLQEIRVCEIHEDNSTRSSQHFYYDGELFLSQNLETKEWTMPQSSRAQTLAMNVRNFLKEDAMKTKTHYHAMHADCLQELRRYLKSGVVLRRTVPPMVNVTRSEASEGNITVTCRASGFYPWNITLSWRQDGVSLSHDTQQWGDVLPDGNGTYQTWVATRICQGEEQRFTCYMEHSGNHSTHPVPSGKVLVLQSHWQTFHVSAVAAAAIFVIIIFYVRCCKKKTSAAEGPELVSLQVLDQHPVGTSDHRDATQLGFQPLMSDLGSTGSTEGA

pKd (SHH002-hu1-MICA (human))	pKd (rhNKG2D-Fc (human) [1])	pKd (rhNKG2D-Fc (human) [2])	Substance
> 12.00			rhFzd7-His (from UniProt O75084 33-574) (receptor)
	7.90	8.90	rhMICA-His (from UniProt Q29983 24-383) (ligand)
7.34			rhNKG2D-Fc (from UniProt P26718 73-216) (Fc fusion)
